“Also recorded” adds a separate entry of the source.
System: C81 cells
Assay: Growth of C81 EBP1 transfectants (monolayer, soft agar, androgen-depleted media)
Type: cell-based, human
Experimental: FIG. 4A-C. EBP1 restoration ameliorates the hormone refractory phenotype A. (Left panel) Growth in monolayer culture. Equal numbers (5×10^4) of vector or EBP1 stably transfected cells were plated at Day 0 in complete media and viable cell numbers determined at the indicated times. Each point represents mean±S.E. of 3 wells. Representative of 3 experiments (Right panel). Colony growth in soft agar. C81 cells stably transfected with either pcDNA or EBP1 were plated in soft agar at the cell densities indicated and colony numbers assessed at Day 10. Each point represents mean±S.E. of 3 dishes. Data is representative of 3 experiments. B. (Left Panel) Response of EBP1 and vector transfected C81 cells to dihydrotestosterone (DHT). EBP1 and vector control C81 transfected cells and early passage LNCaP cells were plated in complete media at 5×10^3 cells/well in 96 well plates for one day. The next day, cells were switched to steroid reduced medium for two days as described in the Materials and Methods. DHT was then added at the indicated concentrations. Cells were refed media every 3 days. Total cell numbers were determined seven days later by MTT assays. Each point represents mean±S.E. of 6 wells. Data is representative of two experiments. (Right Panel) Effect of Bicalutamide on DHT stimulated growth. Cells were plated as described in the Materials and Methods. After 2 days in steroid reduced medium, cells were fed with fresh steroid reduced medium with or without 10 μM bicalutamide (Casodex) in the presence or absence of 10 nM DHT. Total cell numbers were assessed 7 days later by MTT assay. Cells were refed media every 3 days. The data shown are mean±S.E. of six wells. Similar results were found in 2 independent experiments. C. EBP1 expression sensitizes C81 cells to chemotherapeutic drugs. […] Total cell numbers were determined by MTT assays 5 days later. […]
Western Blot Analysis. […] For soft agar growth assays, increasing concentrations of cells (as indicated) were plated in 35 mm Petri dishes in 0.3% agar in complete media and colonies were counted after 10 days of incubation (21). […]

B1: EBP1: ErbB3 binding protein (SEQ ID NO: 2), AR corepressor, here ectopically expressed in cancer cells by stable transfection of an expression plasmid (protein, listed as Homo sapiens)
chain: MSGEDEQQEQTIAEDLVVTKYKMGGDIANRVLRSLVEASSSGVSVLSLCEKGDAMIMEETGKIFKKEKEMKKGIAFPTSISVNNCVCHFSPLKSDQDYILKEGDLVKIDLGVHVDGFIANVAHTFVVDVAQGTQVTGRKADVIKAAHLCAEAALRLVKPGNQNTQVTEAWNKVAHSFNCTPIEGMLSHQLKQHVIDGEKTIIQNPTDQQKKDHEKAEFEVHEVYAVDVLVSSGEGKAKDAGQRTTIYKRDPSKQYGLKMKTSRAFFSEVERRFDAMPFTLRAFEDEKKARMGVVECAKHELLQPFNVLYEKEGEFVAQFKFTVLLMPNGPMRITSGPFEPDLYKSEMEVQDAELKALLQSSASRKTQKKKKKKASKTAENATSGETLEENEAGD
modifications: FLAG tag
C81, highest cell concentration tested
  decrease of colony growth in soft agar: approximately 50%
C81 EBP1 transfectants vs vector control, p<0.05
  growth rate in complete media: significantly decreased
C81 EBP1 transfectants, androgen depleted media
  growth in the absence of androgens relative to vector controls: reduced to one third; also recorded: reduced by ⅔

Reference: patent US7838495B2, “Compositions and methods of use of EPB1, and ErbB3 binding protein” (University of Maryland, Baltimore, priority 2007, dated 2010)
